# Test results: US20030166036A1, “Protease and an aminopeptidase associated with development of benign prostatic hyperplasia (BPH)” (priority 2001, published 2003)
# Assays:
# PSA = target: T1, PSA (Homo sapiens, UniProt P07288); assay: Incubation of PSA with lysyl endopeptidase C, cleavage followed by HIC-HPLC and N-terminal sequencing; type: biochemical
# T1 construct: Unlike the purified mature PSA, pPSA was isolated from a recombinant expression system; from tissue; host or cells: seminal plasma
# Description: (§1) High-performance hydrophobic interaction chromatography (HIC-HPLC) was performed using a polypropylaspartamide column (PolyLC, distributed by Western Analytical, Temecula, Calif.). The column was 4.6×250 mm in length with a 1000 Å pore size. Samples were applied in 1.5 M ammonium sulfate and eluted with a gradient. Buffers were prepared as follows. Buffer A consisted of 1.2 M sodium sulfate, 25 mM sodium phosphate, and a pH of 6.3, and Buffer B consisted of 50 mM sodium phosphate and 5% v/v 2-propanol. The gradient was 0-30% B for 1 minute, 30-60% B 10 minutes, followed by re-equilibration in Buffer A. High-sensitivity peak detection was obtained with a Varian Model 9070 (Varian Medical Systems, Palo Alto, Calif.) scanning fluorescence detector using an excitation of 232 nm and an emission of 334 nm to detect the tryptophan residues in protein.
# N-terminal sequence analysis of the samples was performed on a PE-Applied Biosystems Model 492 amino acid sequencer (PE-Applied Biosystems, Foster City, Calif.). Purified PSA and peaks collected by HIC-HPLC were applied directly to Prosorb cartridges (PE-Applied Biosystems, Foster City, Calif.), washed three times with 0.1 ml 0.01% trifluoroacetic acid, and applied to the sequencer.
# Samples of PSA and proPSA were incubated with 0.1% lysyl endopeptidase C (Wako Cemicals USA, Richmond, Va.) in PBS at pH 7 for the times indicated in the figures. The LysC reaction was quenched by the addition of a 10-fold molar excess of aprotinin prior to analysis by HIC-HPLC. The internal cleavage sites of the different HIC-HPLC peaks were determined by N-terminal sequencing.
# We also examined the digestion of PSA with LysC in vitro to determine the relative susceptibility of the Lys145 and Lys182 sites.
# proPSA = target: T2, proPSA (Homo sapiens, UniProt P07288); assay: Incubation of proPSA with lysyl endopeptidase C, cleavage followed by HIC-HPLC; type: biochemical; details: recombinant pPSA (zymogen), 0.1% LysC in PBS pH 7
# T2 construct: due to the altered folding in the zymogen form of PSA; made in house
# Description: as §1
# Samples of PSA and proPSA were incubated with 0.1% lysyl endopeptidase C (Wako Cemicals USA, Richmond, Va.) in PBS at pH 7 for the times indicated in the figures. […] The internal cleavage sites of the different HIC-HPLC peaks were determined by N-terminal sequencing.
# ProPSA (pPSA) was also incubated with LysC to determine if there was any difference between the cleavage of the Lys145 and Lys182 sites due to the altered folding in the zymogen form of PSA. […] The cleavage of the Lys182 and Lys145 sites in pPSA was also monitored by HIC-HPLC. […]
# T1 sequence (P07288 25-261): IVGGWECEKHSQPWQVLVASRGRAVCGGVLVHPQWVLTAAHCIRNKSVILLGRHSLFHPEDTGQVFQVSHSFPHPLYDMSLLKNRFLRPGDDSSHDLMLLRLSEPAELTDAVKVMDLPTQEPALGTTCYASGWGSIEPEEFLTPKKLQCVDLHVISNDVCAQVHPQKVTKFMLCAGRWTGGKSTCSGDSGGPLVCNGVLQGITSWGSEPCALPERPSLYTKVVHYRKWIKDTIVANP
# T2 sequence (P07288 18-261 limits assumed): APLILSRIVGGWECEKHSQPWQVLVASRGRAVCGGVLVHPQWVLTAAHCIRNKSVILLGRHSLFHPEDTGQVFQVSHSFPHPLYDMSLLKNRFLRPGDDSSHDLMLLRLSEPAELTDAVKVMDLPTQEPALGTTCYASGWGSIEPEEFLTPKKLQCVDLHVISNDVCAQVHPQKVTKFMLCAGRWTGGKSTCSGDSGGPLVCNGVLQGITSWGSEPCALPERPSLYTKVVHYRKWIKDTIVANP
molecule,measurement,setting,value
"LysC: lysyl endopeptidase C (Wako), commercial protease with wide specificity for lysine residues, used to cleave PSA in vitro (protein) GVSGSCNIDVVCPEGDGRRDIIRAVGAYSKSGTLACTGSLVNNTANDRKMYFLTAHHCGMGTASTAASIVVYWNYQNSTCRAPNTPASGANGDGSMSQTQSGSTVKATYATSDFTLLELNNAANPAFNLFWAGWDRRDQNYPGAIAIHHPNVAEKRISNSTSPTSFVAWGGGAGTTHLNVQWQPSGGVTEPGSSGSPIYSPEKRVLGQLHGGPSSCSATGTNRSDQYGRVFTSWTGGGAAASRLSDWLDPASTGAQFIDGLDSGGGTP",Lys182 cleaved more rapidly than Lys145,PSA; PSA digested with LysC in vitro,approximately 30 times
same,PSA cleaved at Lys182,PSA; after 30 minutes of incubation with LysC,100%
same,initial rate of cleavage at Lys182,"PSA; mature PSA purified from seminal plasma, 0.1% LysC in PBS pH 7",12 % per minute
same,rate of cleavage at Lys145,"PSA; mature PSA, 0.1% LysC in PBS pH 7, based on time points greater than 30 minutes",0.3 % per minute
same,initial rate of cleavage of the Lys182,proPSA,8 % per minute
same,rate of cleavage at Lys145,proPSA,about 0.6 % per minute
